Tests used:
Experiment in all cases: SPR
FcγRIIa-131R = target: FcγRIIa-131R
FcγRIIb = target: FcγRIIb
FcγRIIIa-158F = target: FcγRIIIa-158F
FcγRIIIa-158V = target: FcγRIIIa-158V
FcγRIIa-131H = target: FcγRIIa-131H
[1] = target: FcγRI (CD64) extracellular domain (UniProt P12314)
Sequence of FcγRI (CD64) extracellular domain (P12314 16-292): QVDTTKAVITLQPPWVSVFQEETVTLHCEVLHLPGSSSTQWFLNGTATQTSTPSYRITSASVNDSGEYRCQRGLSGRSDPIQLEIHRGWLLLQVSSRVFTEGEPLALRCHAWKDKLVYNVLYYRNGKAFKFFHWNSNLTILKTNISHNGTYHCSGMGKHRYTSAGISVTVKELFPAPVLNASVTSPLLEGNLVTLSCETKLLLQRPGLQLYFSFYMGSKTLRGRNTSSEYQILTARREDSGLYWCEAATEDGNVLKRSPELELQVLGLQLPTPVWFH

Kd (FcγRIIa-131R) [nM]	Kd (FcγRIIb) [nM]	Kd (FcγRIIIa-158F) [nM]	Kd (FcγRIIIa-158V) [nM]	Kd (FcγRIIa-131H) [nM]	Kd [1] [nM]	Substance
800	4400	1400	200	600	0.0643	Hu IgG1
1600	1600	10000	3100	4100	0.472	Hu IgG4P
> 10000	> 10000	> 10000	8900	> 10000	> 200	Hu IgG4PAA

Reference: article PMC12046042
